Columns and labels:
[1] = molecular target: T1, AMP-dependent ACS (Mthe_1194) (Methanothrix thermoacetophila, UniProt A0B8F1); experiment: coupled assay via auxiliary enzymes (myokinase, pyruvate kinase, lactate dehydrogenase), NADH […] nm; assay type: biochemical; settings: read-out: 50% reduction of the reaction rate
T1 construct: gene acsA; full-length gene in pASK-IBA5, N-terminal Strep-tag II, E. coli BL21 (DE3) pLysS; approximately 75 kDa on SDS gel
T1 sequence (A0B8F1 1-659): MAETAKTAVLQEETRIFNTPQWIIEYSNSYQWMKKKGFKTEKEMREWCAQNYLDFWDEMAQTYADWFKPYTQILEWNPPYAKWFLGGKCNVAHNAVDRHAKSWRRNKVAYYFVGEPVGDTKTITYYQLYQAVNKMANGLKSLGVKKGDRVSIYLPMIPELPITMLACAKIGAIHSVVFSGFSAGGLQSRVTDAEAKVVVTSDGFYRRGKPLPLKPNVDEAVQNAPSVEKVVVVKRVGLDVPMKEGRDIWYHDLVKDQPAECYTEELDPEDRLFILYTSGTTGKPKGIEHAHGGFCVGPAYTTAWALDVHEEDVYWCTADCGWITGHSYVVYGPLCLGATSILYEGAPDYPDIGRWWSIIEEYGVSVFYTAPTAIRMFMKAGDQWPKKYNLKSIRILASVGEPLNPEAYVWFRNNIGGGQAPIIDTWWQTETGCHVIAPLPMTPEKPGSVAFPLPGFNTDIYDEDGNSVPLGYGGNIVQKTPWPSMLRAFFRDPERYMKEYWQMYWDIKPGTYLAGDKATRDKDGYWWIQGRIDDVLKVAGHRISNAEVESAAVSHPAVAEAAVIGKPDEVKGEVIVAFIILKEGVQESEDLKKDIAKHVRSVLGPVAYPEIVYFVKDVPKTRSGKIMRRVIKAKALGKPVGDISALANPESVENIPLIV

[2] = molecular target: T1, AMP-dependent ACS (Mthe_1194); experiment: discontinuous pyrophosphate detection (molybdate / Eikonogen, […] nm); assay type: biochemical; settings: co-substrates ATP and CoA; 55°C
purified protein [3] = substrate: CC(=O)O; experiment: purified protein; settings: 50 mM HEPES pH 7.5, 5 mM MgCl2, 1 mM CoA, 2.5 mM ATP, 55°C
purified protein [4] = substrate: Nc1ncnc2c1ncn2[C@@H]1O[C@H](COP(=O)(O)OP(=O)(O)OP(=O)(O)O)[C@@H](O)[C@H]1O; experiment: purified protein; assay type: biochemical, Methanothrix thermoacetophila; settings: co-substrates acetate and CoA, 55°C
purified protein [5] = substrate: CC(C)(COP(=O)(O)OP(=O)(O)OC[C@H]1O[C@@H](n2cnc3c(N)ncnc32)[C@H](O)[C@@H]1OP(=O)(O)O)[C@@H](O)C(=O)NCCC(=O)NCCS; experiment: purified protein; assay type: biochemical, Methanothrix thermoacetophila; settings: co-substrates acetate and ATP, 55°C

## O=P(O)(O)OP(=O)(O)O [PPi]
[1]
  IC50: ~250 µM

## CCC(=O)O [propionate]
[2]
  discontinuous pyrophosphate detection (molybdate / Eikonogen, 580 nm): A reaction was also observed with propionate

B1: AMP-dependent ACS (Mthe_1194) (Methanothrix thermoacetophila PT) (protein)
chain: MAETAKTAVLQEETRIFNTPQWIIEYSNSYQWMKKKGFKTEKEMREWCAQNYLDFWDEMAQTYADWFKPYTQILEWNPPYAKWFLGGKCNVAHNAVDRHAKSWRRNKVAYYFVGEPVGDTKTITYYQLYQAVNKMANGLKSLGVKKGDRVSIYLPMIPELPITMLACAKIGAIHSVVFSGFSAGGLQSRVTDAEAKVVVTSDGFYRRGKPLPLKPNVDEAVQNAPSVEKVVVVKRVGLDVPMKEGRDIWYHDLVKDQPAECYTEELDPEDRLFILYTSGTTGKPKGIEHAHGGFCVGPAYTTAWALDVHEEDVYWCTADCGWITGHSYVVYGPLCLGATSILYEGAPDYPDIGRWWSIIEEYGVSVFYTAPTAIRMFMKAGDQWPKKYNLKSIRILASVGEPLNPEAYVWFRNNIGGGQAPIIDTWWQTETGCHVIAPLPMTPEKPGSVAFPLPGFNTDIYDEDGNSVPLGYGGNIVQKTPWPSMLRAFFRDPERYMKEYWQMYWDIKPGTYLAGDKATRDKDGYWWIQGRIDDVLKVAGHRISNAEVESAAVSHPAVAEAAVIGKPDEVKGEVIVAFIILKEGVQESEDLKKDIAKHVRSVLGPVAYPEIVYFVKDVPKTRSGKIMRRVIKAKALGKPVGDISALANPESVENIPLIV
notes: full-length gene in pASK-IBA5, N-terminal Strep-tag II, E. coli BL21 (DE3) pLysS; approximately 75 kDa on SDS gel
Purified protein [3]
  Km: 400 µM
Purified protein [4]
  Km: 20 µM
Purified protein [5]
  Km: 14.5 µM
